# Assay results as given in US20030036642.
# Target: PDGF-AB (A-chain/B-chain heterodimer) (Homo sapiens) (UniProt P04085+P01127)
# Experiment: filter
# PDGF-AB (A-chain/B-chain heterodimer) (Homo sapiens), sequence (P01127 82-190, chain 2 of 2, other chains not shown): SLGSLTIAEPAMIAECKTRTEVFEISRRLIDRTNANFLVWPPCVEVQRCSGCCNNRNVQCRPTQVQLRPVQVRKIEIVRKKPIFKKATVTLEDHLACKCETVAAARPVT
sequence,measurement,setting,value
GGGAGACAAGAAUAACGCUCAANNNNNNNNNNNNNNNNNNNNNNNNNNNNNNNNNNNNNNNNNNNNNNNNNNUUCGACAGGAGGCUCACAACAGGC [starting random 2'-F-pyrimidine RNA pool],Kd,"2'-F all C,U, random 2'-F-pyrimidine RNA, method inferred",35 nM
ATCCGCCTGATTAGCGATACTNNNNNNNNNNNNNNNNNNNNNNNNNNNNNNNNNNNNNNNNACTTGAGCAAAATCACCTGCAGGGG [round 12 affinity-enriched ssDNA pool],Kd,"after 12 rounds, apparent Kd",0.05 nM
ATCCGCCTGATTAGCGATACTNNNNNNNNNNNNNNNNNNNNNNNNNNNNNNNNNNNNNNNNACTTGAGCAAAATCACCTGCAGGGG [starting random ssDNA pool],binding signal (fold lower affinity than round 12 pool),,700
